{
  "source": "the RNAGym collection of RNA variant scans (doi:10.7554/elife.80360)",
  "parents": {"B1": {"name": "Hairpin Ribozyme (parent)", "chain": "GUCCUCUUUCACGUGCGCGUGAAAGAGAGAAGUGAACCAGAGAAACACACGUUGUGGUAUAUUACCUGGUA"}},
  "data": [
    {"variants_of": "B1", "assay": "self-cleavage, relative activity (ratio to wild type); higher = more cleavage; co-transcriptional", "values": [
      {"variant": "C4U U9G", "self-cleavage": 0.178},
      {"variant": "U5A G42A", "self-cleavage": 0.217},
      {"variant": "C4G U58G", "self-cleavage": 0.241},
      {"variant": "U5A U20A", "self-cleavage": 0.315},
      {"variant": "U5G G21A", "self-cleavage": 0.17},
      {"variant": "U5A C38A", "self-cleavage": 0.142},
      {"variant": "C4G U7A", "self-cleavage": 0.143},
      {"variant": "C4G U7C", "self-cleavage": 0.15},
      {"variant": "C4U A11G", "self-cleavage": 0.425},
      {"variant": "C4U A11U", "self-cleavage": 0.256},
      {"variant": "U5A A39U", "self-cleavage": 0.0927},
      {"variant": "U5A A39G", "self-cleavage": 0.101},
      {"variant": "U5C A59C", "self-cleavage": 0.105},
      {"variant": "C4U A43G", "self-cleavage": 0.141},
      {"variant": "C4U C18A", "self-cleavage": 0.4},
      {"variant": "U5A U63C", "self-cleavage": 0.196},
      {"variant": "U5A U63A", "self-cleavage": 0.206},
      {"variant": "C4U U8G", "self-cleavage": 0.204},
      {"variant": "U5G A23G", "self-cleavage": 0.372},
      {"variant": "U5G", "self-cleavage": 0.324},
      {"variant": "U5C", "self-cleavage": 0.648},
      {"variant": "U5A", "self-cleavage": 0.368},
      {"variant": "C6A A47U", "self-cleavage": 0.182},
      {"variant": "C6A A47C", "self-cleavage": 0.221},
      {"variant": "C4G U8C", "self-cleavage": 0.0934},
      {"variant": "U5G C37G", "self-cleavage": 0.125},
      {"variant": "C6A A11U", "self-cleavage": 0.399},
      {"variant": "C6A A11C", "self-cleavage": 0.415},
      {"variant": "U5C A71U", "self-cleavage": 0.564},
      {"variant": "C4U G21U", "self-cleavage": 0.222},
      {"variant": "C4U G21C", "self-cleavage": 0.328},
      {"variant": "C4G G19C", "self-cleavage": 0.194},
      {"variant": "U5C U62G", "self-cleavage": 0.159},
      {"variant": "C4U A24C", "self-cleavage": 0.33},
      {"variant": "C4U A24G", "self-cleavage": 0.272},
      {"variant": "C6A A59C", "self-cleavage": 0.113},
      {"variant": "C6A A59U", "self-cleavage": 0.107},
      {"variant": "U5C U33C", "self-cleavage": 0.0316},
      {"variant": "U5C U33G", "self-cleavage": 0.208},
      {"variant": "U5C U33A", "self-cleavage": 0.149},
      {"variant": "C4G G34U", "self-cleavage": 0.977},
      {"variant": "C4G G34A", "self-cleavage": 0.5},
      {"variant": "U5A G68U", "self-cleavage": 0.154},
      {"variant": "C4U G17A", "self-cleavage": 0.263},
      {"variant": "U5A A61C", "self-cleavage": 0.088},
      {"variant": "U5G A71C", "self-cleavage": 0.732},
      {"variant": "C4G U20A", "self-cleavage": 0.225},
      {"variant": "U5C C38A", "self-cleavage": 0.168},
      {"variant": "C6A A26C", "self-cleavage": 0.418},
      {"variant": "C4U G69U", "self-cleavage": 0.177},
      {"variant": "C4G G57C", "self-cleavage": 0.143},
      {"variant": "U5C U20A", "self-cleavage": 0.532},
      {"variant": "U5C C50U", "self-cleavage": 0.17},
      {"variant": "U5A A47C", "self-cleavage": 0.187},
      {"variant": "U5A A47U", "self-cleavage": 0.0694},
      {"variant": "U5A A47G", "self-cleavage": 0.102},
      {"variant": "U5G A44U", "self-cleavage": 0.093},
      {"variant": "C4G C50G", "self-cleavage": 0.0987},
      {"variant": "U5G U60C", "self-cleavage": 0.593},
      {"variant": "U5G U60A", "self-cleavage": 0.161},
      {"variant": "U5C A23C", "self-cleavage": 0.692},
      {"variant": "U5C A23G", "self-cleavage": 0.683},
      {"variant": "C4G U5A", "self-cleavage": 0.203},
      {"variant": "C4G U5G", "self-cleavage": 0.0498},
      {"variant": "U5C A24G", "self-cleavage": 0.453},
      {"variant": "U5C A24C", "self-cleavage": 0.483},
      {"variant": "U5C A35C", "self-cleavage": 0.732},
      {"variant": "U5C A35U", "self-cleavage": 0.0604},
      {"variant": "U5G C50U", "self-cleavage": 0.147},
      {"variant": "U5G G68A", "self-cleavage": 0.201},
      {"variant": "U5G G29A", "self-cleavage": 0.139},
      {"variant": "U5A G32A", "self-cleavage": 0.158},
      {"variant": "U5G A43C", "self-cleavage": 0.269},
      {"variant": "U5G A43U", "self-cleavage": 0.155},
      {"variant": "U5C C37A", "self-cleavage": 0.178},
      {"variant": "C4U A64U", "self-cleavage": 0.205},
      {"variant": "U5C C12U", "self-cleavage": 0.772},
      {"variant": "U5G A45G", "self-cleavage": 0.121},
      {"variant": "C4G U52C", "self-cleavage": 0.174},
      {"variant": "C4G G13C", "self-cleavage": 0.178},
      {"variant": "U5C U7G", "self-cleavage": 0.365},
      {"variant": "U5C U7A", "self-cleavage": 0.395},
      {"variant": "U5C G19A", "self-cleavage": 0.422},
      {"variant": "U5C C46U", "self-cleavage": 0.023},
      {"variant": "U5G G42U", "self-cleavage": 0.198},
      {"variant": "U5G G42C", "self-cleavage": 0.0932},
      {"variant": "U5G A47G", "self-cleavage": 0.123},
      {"variant": "C4G U67C", "self-cleavage": 0.0875},
      {"variant": "U5C G32A", "self-cleavage": 0.162},
      {"variant": "U5A A41U", "self-cleavage": 0.818},
      {"variant": "U5A C12A", "self-cleavage": 0.273},
      {"variant": "U5A C12G", "self-cleavage": 0.266},
      {"variant": "U5G A28U", "self-cleavage": 0.242},
      {"variant": "U5G A28C", "self-cleavage": 0.0791},
      {"variant": "U5C C10G", "self-cleavage": 0.373},
      {"variant": "C4U A71G", "self-cleavage": 0.426},
      {"variant": "U5C A47U", "self-cleavage": 0.166},
      {"variant": "U5C A47C", "self-cleavage": 0.208},
      {"variant": "U5A A36G", "self-cleavage": 0.427},
      {"variant": "U5A U53A", "self-cleavage": 0.221},
      {"variant": "U5A U53C", "self-cleavage": 0.452},
      {"variant": "U5G C18G", "self-cleavage": 0.577},
      {"variant": "U5A G27A", "self-cleavage": 0.179},
      {"variant": "U5A G27C", "self-cleavage": 0.187},
      {"variant": "U5A G27U", "self-cleavage": 0.116},
      {"variant": "U5A C46A", "self-cleavage": 0.16},
      {"variant": "U5A C46U", "self-cleavage": 0.0644},
      {"variant": "U5G U8G", "self-cleavage": 0.262},
      {"variant": "U5G U8C", "self-cleavage": 0.099},
      {"variant": "C4U U70A", "self-cleavage": 0.299},
      {"variant": "C4U U70C", "self-cleavage": 0.341},
      {"variant": "C6A C12U", "self-cleavage": 0.512},
      {"variant": "U5A A49U", "self-cleavage": 0.0811},
      {"variant": "U5A A49C", "self-cleavage": 0.124},
      {"variant": "U5C U63G", "self-cleavage": 0.0578},
      {"variant": "U5G U70A", "self-cleavage": 0.204},
      {"variant": "U5G U70C", "self-cleavage": 0.226},
      {"variant": "U5G U58G", "self-cleavage": 0.0427},
      {"variant": "U5G U55G", "self-cleavage": 0.2},
      {"variant": "U5G C38A", "self-cleavage": 0.12},
      {"variant": "C4U G57A", "self-cleavage": 0.155},
      {"variant": "C4U G57U", "self-cleavage": 0.161},
      {"variant": "C4U G57C", "self-cleavage": 0.226},
      {"variant": "U5C G17A", "self-cleavage": 0.644},
      {"variant": "U5C G17U", "self-cleavage": 0.794},
      {"variant": "C4U G27C", "self-cleavage": 0.229},
      {"variant": "C4U G27U", "self-cleavage": 0.118},
      {"variant": "U5C G15U", "self-cleavage": 0.574},
      {"variant": "U5C G15C", "self-cleavage": 0.469},
      {"variant": "U5C G56A", "self-cleavage": 0.107},
      {"variant": "U5C G56U", "self-cleavage": 0.128},
      {"variant": "U5G A39G", "self-cleavage": 0.0943},
      {"variant": "U5G A64U", "self-cleavage": 0.161},
      {"variant": "C4G G21A", "self-cleavage": 0.0893},
      {"variant": "C4U A26G", "self-cleavage": 0.221},
      {"variant": "U5A A71C", "self-cleavage": 0.884},
      {"variant": "C4U U33A", "self-cleavage": 0.283},
      {"variant": "C4U U33G", "self-cleavage": 0.0889},
      {"variant": "U5G G56U", "self-cleavage": 0.125},
      {"variant": "C4G G51U", "self-cleavage": 0.223},
      {"variant": "C4G G51C", "self-cleavage": 0.207},
      {"variant": "C4U C6A", "self-cleavage": 0.0821},
      {"variant": "C4U C6G", "self-cleavage": 0.0904},
      {"variant": "C4U C6U", "self-cleavage": 0.192},
      {"variant": "U5A G17A", "self-cleavage": 0.435},
      {"variant": "U5A G17C", "self-cleavage": 0.204},
      {"variant": "C4U C38G", "self-cleavage": 0.0751},
      {"variant": "C4U C38A", "self-cleavage": 0.13},
      {"variant": "C4U C50U", "self-cleavage": 0.213},
      {"variant": "C4U C50A", "self-cleavage": 0.203},
      {"variant": "C4U C16U", "self-cleavage": 0.362},
      {"variant": "C6A A71C", "self-cleavage": 1.14},
      {"variant": "U5A A26C", "self-cleavage": 0.491},
      {"variant": "C4G G56U", "self-cleavage": 0.148},
      {"variant": "C4G G56A", "self-cleavage": 0.249},
      {"variant": "C4U U63G", "self-cleavage": 0.103},
      {"variant": "C4G G69C", "self-cleavage": 0.193},
      {"variant": "U5G A11C", "self-cleavage": 0.175},
      {"variant": "C4U U5A", "self-cleavage": 0.0527},
      {"variant": "U5A U14C", "self-cleavage": 0.343},
      {"variant": "U5A A31U", "self-cleavage": 0.14},
      {"variant": "C4U U53G", "self-cleavage": 0.412},
      {"variant": "C4U U20G", "self-cleavage": 0.213},
      {"variant": "C4U G40C", "self-cleavage": 0.13},
      {"variant": "U5G G17C", "self-cleavage": 0.35},
      {"variant": "U5A U9C", "self-cleavage": 0.179},
      {"variant": "U5G A41G", "self-cleavage": 0.129}
    ]}
  ]
}
